Laboratory results as given in publication PMC5514047.

Biological target: human ribosomal stalk protein P2 lacking the last 16 amino acids (P2ΔC) (human) (UniProt P05387)
Assay: native MS

Substance: human ribosomal stalk protein P2 lacking the last 16 amino acids (P2ΔC) (from UniProt P05387 1-99) (domain or fragment)
- stoichiometry N: 2
